Substrate: O=S(O)O
Assay: purified protein
Format: biochemical, Zea mays
Conditions: 400 µM ferricyanide as electron acceptor, sulfite 2.5-400 µM, 20 mM Tris-HCl pH 8.0 (general SO assay)

B1: ZmSO (recombinant maize sulfite oxidase) (Zea mays subsp. mays) (protein)
chain: MPGLTAPSDYAEEPPRHPALKINSKEPFNAEPHRSELVASYITPVDFFYKRNHGPIPKVEDLSRYTVSISGLVNKSIQLSMADIWSLPKYNVTATLQCAGNRRTAMSNVRKVRGVGWDISALGTATWGGAKLSDVLELVGIPKLSSVTSLGGKHVEFVSVDKCKEEKGGPYTASIPLNQATNPDADVLLAYEMNGEVLNRDHGYPLRVVVPGVIGARSVKWLDSINVKEEECQGFFMQKDYKMFPPTVDWDNINWSTRRPQMDFPVQSAICTLEDVDVIKEGQARIAGYALSGGGRGIERVDVSADGGKTWVEARRYQKDNVAYVSDGPQSDKWAWVLFEATLDVPANPEIVVKAVDSAANVQPEKVEDIWNLRGILNTSWHRIKIQRSSCVERSKL
notes: 45 kDa; Mo domain, no heme domain; primers give N-terminus MPGLTA
Which Km does the source give for B1 here?
The Km was 21.4 ± 0.32 µM.

From PMC3365070, “Overexpression of a Maize Sulfite Oxidase Gene in Tobacco Enhances Tolerance to Sulfite Stress via Sulfite Oxidation and CAT-Mediated H2O2 Scavenging” (PLoS ONE, 2012)
